Results taken from the supplement of paper PMC10126150.
± gives the standard deviation of the averaged measurements.

System: ATP
Assay: switch fluorescence ratio, 500 uM ATP over buffer (Cy3 cluster intensity, sum of 5 cycles each) (fold (ratio)); higher = stronger signal-on switching upon ATP binding; sequences stand for … in TCGTCGGCAGCGTCAGATGTGTATAAGAGACAGTTTTTTTTTTTTTTTTTTTTTTTTT…TC
Conditions: aptamer strand: ATP DNA aptamer (quencher-CACCTGGGGGAGTATTGCGGAGGAAGG + anchor), 100 nM annealed; ATP concentration: 500 uM
Summary of the method: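 Clusters with intensities outside 100-1000 RFU were excluded. The remaining Cy3-labelled switching-strand clusters on a modified Illumina MiSeq flow-cell had been annealed to 100 nM quencher-labelled ATP aptamer and imaged in selection buffer, then after 15 min with 500 uM ATP at 22 °C, for five cycles separated by NaOH stripping and re-annealing. The fluorescence ratio, averaged per switch-domain sequence, is each cluster's summed target-cycle Cy3 intensity over its summed buffer-cycle Cy3 intensity.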
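Also: ATP exposure 15 min at 22 °C before imaging.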

TAAAAAGAGC
switch fluorescence ratio: 0.984 ± 0.022

TAAAAAGGTG
switch fluorescence ratio: 1.12 ± 0.11

TAAAAATAGC
switch fluorescence ratio: 1.024 ± 0.0095

TAAAAATATG
switch fluorescence ratio: 0.9907 ± 0.0013

TAAAAATCAT
switch fluorescence ratio: 1.01 ± 0.034

TAAAAATCGA
switch fluorescence ratio: 0.993 ± 0.0013

TAAAAATGAC
switch fluorescence ratio: 1.07 ± 0.1

TAAAAATGCG
switch fluorescence ratio: 0.951 ± 0.065

TAAAAATTTA
switch fluorescence ratio: 1.01 ± 0.048

TAAAACGCCC
switch fluorescence ratio: 1.15 ± 0.04

TAAAAGACTG
switch fluorescence ratio: 0.992 ± 0.094

TAAAAGGGTC
switch fluorescence ratio: 0.942 ± 0.085

TAAAATAGAG
switch fluorescence ratio: 1 ± 0.035

TAAAATCCTG
switch fluorescence ratio: 1.05 ± 0.039

TAAAATGGAC
switch fluorescence ratio: 1.03 ± 0.028

TAAAATGGCG
switch fluorescence ratio: 1 ± 0.055

TAAAATGGGA
switch fluorescence ratio: 0.981 ± 0.027

TAAAATGTTA
switch fluorescence ratio: 0.985 ± 0.0063

TAAAATGTTT
switch fluorescence ratio: 0.998 ± 0.013

TAAAATTCTT
switch fluorescence ratio: 1.01 ± 0.025

TAAACAATTT
switch fluorescence ratio: 0.978 ± 0.013

TAAACCCTGC
switch fluorescence ratio: 1.07 ± 0.032

TAAACCGATG
switch fluorescence ratio: 1.21 ± 0.048

TAAACCTGTG
switch fluorescence ratio: 1.05 ± 0.088

TAAACGCCTC
switch fluorescence ratio: 1.08 ± 0.058

TAAACGGGAT
switch fluorescence ratio: 0.999 ± 0.019

TAAACGGGCG
switch fluorescence ratio: 0.983 ± 0.019

TAAACGGGTA
switch fluorescence ratio: 1.04 ± 0.02

TAAAGAACCA
switch fluorescence ratio: 1.016 ± 0.0053

TAAAGAAGGT
switch fluorescence ratio: 1.01 ± 0.033

TAAAGACCGA
switch fluorescence ratio: 1.08 ± 0.048

TAAAGAGAGA
switch fluorescence ratio: 1.03 ± 0.012

TAAAGAGAGC
switch fluorescence ratio: 1.01 ± 0.097

TAAAGAGTCG
switch fluorescence ratio: 1.02 ± 0.063

TAAAGATATC
switch fluorescence ratio: 0.972 ± 0.028

TAAAGCATTA
switch fluorescence ratio: 1.04 ± 0.025

TAAAGCGTAG
switch fluorescence ratio: 0.998 ± 0.027

TAAAGGAAAG
switch fluorescence ratio: 1.02 ± 0.03

TAAAGGAAGG
switch fluorescence ratio: 0.9801 ± 0.0066

TAAAGGATAA
switch fluorescence ratio: 0.9849 ± 0.0093

TAAAGGGGGT
switch fluorescence ratio: 1.01 ± 0.047

TAAAGGTATC
switch fluorescence ratio: 0.9977 ± 0.0048

TAAAGGTCAG
switch fluorescence ratio: 0.996 ± 0.018

TAAAGGTGTA
switch fluorescence ratio: 1 ± 0.026

TAAAGTACGT
switch fluorescence ratio: 1.11 ± 0.021

TAAAGTAGAT
switch fluorescence ratio: 0.988 ± 0.027

TAAAGTATAT
switch fluorescence ratio: 0.9976 ± 0.004

TAAAGTCCGA
switch fluorescence ratio: 1.014 ± 0.0028

TAAAGTGTTG
switch fluorescence ratio: 1.02 ± 0.024

TAAATAGAAT
switch fluorescence ratio: 1.11 ± 0.1

TAAATATGGG
switch fluorescence ratio: 0.999 ± 0.034

TAAATCAGAG
switch fluorescence ratio: 0.99 ± 0.03

TAAATCGTAG
switch fluorescence ratio: 0.991 ± 0.0099

TAAATCTCTG
switch fluorescence ratio: 1.004 ± 0.0055

TAAATGATTT
switch fluorescence ratio: 1.01 ± 0.014

TAAATGGTCC
switch fluorescence ratio: 1.073 ± 0.0063

TAAATGTCAT
switch fluorescence ratio: 0.998 ± 0.027

TAAATGTGGA
switch fluorescence ratio: 0.972 ± 0.03

TAAATTAGCT
switch fluorescence ratio: 1.02 ± 0.037

TAAATTAGGA
switch fluorescence ratio: 0.988 ± 0.074

TAAATTTATA
switch fluorescence ratio: 0.992 ± 0.021

TAAATTTATT
switch fluorescence ratio: 1.01 ± 0.017

TAAATTTGAC
switch fluorescence ratio: 0.996 ± 0.036

TAACAAGGCA
switch fluorescence ratio: 0.985 ± 0.013

TAACACAGTC
switch fluorescence ratio: 1.04 ± 0.054

TAACACTAGC
switch fluorescence ratio: 1.011 ± 0.0037

TAACAGGTTG
switch fluorescence ratio: 1.02 ± 0.019

TAACCAATTT
switch fluorescence ratio: 1.01 ± 0.018

TAACCCGGTT
switch fluorescence ratio: 0.999 ± 0.042

TAACCGATAT
switch fluorescence ratio: 0.99434 ± 0.00034

TAACCTCGCG
switch fluorescence ratio: 1.04 ± 0.02

TAACGAAAAA
switch fluorescence ratio: 1.03 ± 0.062

TAACGGACGT
switch fluorescence ratio: 1.01 ± 0.054

TAACGGACTA
switch fluorescence ratio: 1.29 ± 0.023

TAACGGCATC
switch fluorescence ratio: 1.08 ± 0.036

TAACGGCGCG
switch fluorescence ratio: 1.028 ± 0.0024

TAACGGGCTG
switch fluorescence ratio: 1.07 ± 0.054

TAACGGGGTT
switch fluorescence ratio: 0.9826 ± 0.00097

TAACGGTATA
switch fluorescence ratio: 1.11 ± 0.058

TAACGTGGGA
switch fluorescence ratio: 0.996 ± 0.058

TAACGTGGTG
switch fluorescence ratio: 1.05 ± 0.019

TAACTATTT
switch fluorescence ratio: 1 ± 0.046

TAACTCTGAG
switch fluorescence ratio: 0.979 ± 0.015

TAACTGCAGA
switch fluorescence ratio: 1.01 ± 0.038

TAACTTCGTG
switch fluorescence ratio: 1.01 ± 0.031

TAAGAACATT
switch fluorescence ratio: 1.03 ± 0.1

TAAGAAGATT
switch fluorescence ratio: 0.986 ± 0.024

TAAGAAGTCC
switch fluorescence ratio: 0.977 ± 0.045

TAAGAATTCC
switch fluorescence ratio: 1.08 ± 0.047

TAAGACGGGG
switch fluorescence ratio: 1.01 ± 0.034

TAAGAGCGTA
switch fluorescence ratio: 1.0055 ± 0.00049

TAAGAGGAGA
switch fluorescence ratio: 0.987 ± 0.017

TAAGAGGGAG
switch fluorescence ratio: 0.966 ± 0.036

TAAGAGGGTG
switch fluorescence ratio: 1.11 ± 0.016

TAAGAGTATC
switch fluorescence ratio: 1.01 ± 0.019

TAAGATCGGC
switch fluorescence ratio: 0.974 ± 0.017

TAAGATCTGA
switch fluorescence ratio: 1.02 ± 0.051

TAAGATGGTG
switch fluorescence ratio: 0.981 ± 0.011

TAAGATGTAT
switch fluorescence ratio: 0.968 ± 0.031

TAAGCCTTG
switch fluorescence ratio: 0.996 ± 0.006

TAAGCTGGCG
switch fluorescence ratio: 1.06 ± 0.14

TAAGCTGTTA
switch fluorescence ratio: 0.981 ± 0.038

TAAGCTTAGT
switch fluorescence ratio: 1.001 ± 0.0065

TAAGGACGAG
switch fluorescence ratio: 1.02 ± 0.013

TAAGGAGGAT
switch fluorescence ratio: 1 ± 0.017

TAAGGAGTGG
switch fluorescence ratio: 1.03 ± 0.073

TAAGGATGGT
switch fluorescence ratio: 0.997 ± 0.01

TAAGGCACGC
switch fluorescence ratio: 1.01 ± 0.027

TAAGGCTACA
switch fluorescence ratio: 1.01 ± 0.016

TAAGGCTGAC
switch fluorescence ratio: 1.15 ± 0.023

TAAGGCTGTG
switch fluorescence ratio: 1 ± 0.017

TAAGGGAGGG
switch fluorescence ratio: 1.05 ± 0.029

TAAGGGCGGC
switch fluorescence ratio: 0.995 ± 0.043

TAAGGGCTGC
switch fluorescence ratio: 1.036 ± 0.0084

TAAGGGGAGT
switch fluorescence ratio: 1.01 ± 0.038

TAAGGGGCCA
switch fluorescence ratio: 1.024 ± 0.0088

TAAGGGGCGT
switch fluorescence ratio: 1.03 ± 0.035

TAAGGGGGCG
switch fluorescence ratio: 1 ± 0.023

TAAGGGGGGA
switch fluorescence ratio: 1.03 ± 0.08

TAAGGGGGGG
switch fluorescence ratio: 1 ± 0.029

TAAGGGGTAC
switch fluorescence ratio: 1 ± 0.013

TAAGGTACGA
switch fluorescence ratio: 1.052 ± 0.0032

TAAGGTACTG
switch fluorescence ratio: 0.984 ± 0.086

TAAGGTCGGC
switch fluorescence ratio: 0.986 ± 0.028

TAAGGTTCTC
switch fluorescence ratio: 0.96 ± 0.015

TAAGGTTGGT
switch fluorescence ratio: 0.987 ± 0.028

TAAGTAAGGG
switch fluorescence ratio: 1 ± 0.025

TAAGTAATTC
switch fluorescence ratio: 1.08 ± 0.064

TAAGTAGAG
switch fluorescence ratio: 0.9824 ± 0.0097

TAAGTAGGGG
switch fluorescence ratio: 0.981 ± 0.023

TAAGTAGGGT
switch fluorescence ratio: 1.01 ± 0.023

TAAGTATGCC
switch fluorescence ratio: 0.963 ± 0.06

TAAGTATGGT
switch fluorescence ratio: 1.03 ± 0.046

TAAGTCAGCT
switch fluorescence ratio: 1 ± 0.032

TAAGTCCCGG
switch fluorescence ratio: 0.984 ± 0.05

TAAGTCGGGA
switch fluorescence ratio: 0.952 ± 0.025

TAAGTGAAAG
switch fluorescence ratio: 0.986 ± 0.022

TAAGTGACAA
switch fluorescence ratio: 1.05 ± 0.019

TAAGTGACAG
switch fluorescence ratio: 1.01 ± 0.063

TAAGTGCAT
switch fluorescence ratio: 1.0026 ± 4.4e-05

TAAGTGGTA
switch fluorescence ratio: 0.993 ± 0.042

TAAGTGGTTT
switch fluorescence ratio: 1 ± 0.019

TAAGTGTAAA
switch fluorescence ratio: 0.986 ± 0.013

TAAGTTAGTG
switch fluorescence ratio: 1 ± 0.016

TAAGTTGACT
switch fluorescence ratio: 1.06 ± 0.078

TAAGTTGGGA
switch fluorescence ratio: 0.98 ± 0.031

TAAGTTTTCC
switch fluorescence ratio: 1.03 ± 0.032

TAATAAGCGG
switch fluorescence ratio: 0.976 ± 0.035

TAATAAGGGG
switch fluorescence ratio: 1.02 ± 0.028

TAATAAGTA
switch fluorescence ratio: 0.97 ± 0.012

TAATAATGAG
switch fluorescence ratio: 0.981 ± 0.011

TAATAATTGG
switch fluorescence ratio: 1.04 ± 0.057

TAATACGGCG
switch fluorescence ratio: 1.009 ± 0.01

TAATAGATCC
switch fluorescence ratio: 1.01 ± 0.067

TAATAGTGTT
switch fluorescence ratio: 1.024 ± 0.0092

TAATAGTTCT
switch fluorescence ratio: 1.01 ± 0.026

TAATATAGTT
switch fluorescence ratio: 1.01 ± 0.027

TAATATGGGC
switch fluorescence ratio: 1.02 ± 0.034

TAATATTAAC
switch fluorescence ratio: 1.02 ± 0.03

TAATATTTTA
switch fluorescence ratio: 0.987 ± 0.014

TAATATTTTT
switch fluorescence ratio: 1 ± 0.017

TAATCAATGT
switch fluorescence ratio: 0.994 ± 0.011

TAATCACGTC
switch fluorescence ratio: 1.04 ± 0.048

TAATCCGCGG
switch fluorescence ratio: 1.14 ± 0.041

TAATCGACTT
switch fluorescence ratio: 1.02 ± 0.014

TAATCGGGTT
switch fluorescence ratio: 0.996 ± 0.017

TAATCGTGGA
switch fluorescence ratio: 1.03 ± 0.022

TAATCGTGTG
switch fluorescence ratio: 0.985 ± 0.067

TAATCGTTTG
switch fluorescence ratio: 0.962 ± 0.01

TAATGACCAA
switch fluorescence ratio: 1.019 ± 0.0071

TAATGACTTG
switch fluorescence ratio: 0.953 ± 0.031

TAATGAGCTA
switch fluorescence ratio: 0.987 ± 0.042

TAATGAGTCA
switch fluorescence ratio: 1 ± 0.081

TAATGAGTTA
switch fluorescence ratio: 0.9658 ± 0.0012

TAATGCATTT
switch fluorescence ratio: 1.01 ± 0.017

TAATGCGTTT
switch fluorescence ratio: 0.98 ± 0.0039

TAATGCTTAT
switch fluorescence ratio: 1.06 ± 0.12

TAATGCTTTT
switch fluorescence ratio: 0.978 ± 0.03

TAATGGAAAA
switch fluorescence ratio: 1.15 ± 0.28

TAATGGAGTT
switch fluorescence ratio: 1 ± 0.029

TAATGGGGCC
switch fluorescence ratio: 1.057 ± 0.005

TAATGGGGGT
switch fluorescence ratio: 0.994 ± 0.025

TAATGGGTTT
switch fluorescence ratio: 0.999 ± 0.062

TAATGGTCGG
switch fluorescence ratio: 0.985 ± 0.053

TAATGGTT
switch fluorescence ratio: 0.979 ± 0.011

TAATGTATGT
switch fluorescence ratio: 0.977 ± 0.018

TAATGTATTA
switch fluorescence ratio: 1.01 ± 0.027

TAATGTGTAA
switch fluorescence ratio: 0.9944 ± 0.0052

TAATGTTATT
switch fluorescence ratio: 0.987 ± 0.017

TAATTAATGG
switch fluorescence ratio: 1 ± 0.031

TAATTACCTC
switch fluorescence ratio: 1.04 ± 0.013

TAATTAGTGG
switch fluorescence ratio: 0.9832 ± 0.0051

TAATTAGTGT
switch fluorescence ratio: 0.979 ± 0.013

TAATTATGTG
switch fluorescence ratio: 0.986 ± 0.024

TAATTCAGGG
switch fluorescence ratio: 1.03 ± 0.032

TAATTCATCG
switch fluorescence ratio: 0.97196 ± 0.00069

TAATTCTTGG
switch fluorescence ratio: 0.972 ± 0.046

TAATTGATGT
switch fluorescence ratio: 1.01 ± 0.06

TAATTGGACG
switch fluorescence ratio: 1.12 ± 0.062

TAATTGGATG
switch fluorescence ratio: 0.992 ± 0.027
